Reference: ChEMBL document CHEMBL1135749, “Stereoselective synthesis and antiviral activity of D-2',3'-didehydro-2',3'-dideoxy-2'-fluoro-4'-thionucleosides” (J Med Chem, 2002)

Target: Adenosine deaminase (Bos taurus) (UniProt P56658)
Assay: Binding efficiency towards mammalian Adenosine deaminase from calf intestinal mucosa

B1: Adenosine deaminase (Bos taurus), P56658 (protein)
chain: MAQTPAFNKPKVELHVHLDGAIKPETILYYGRKRGIALPADTPEELQNIIGMDKPLSLPEFLAKFDYYMPAIAGCREAVKRIAYEFVEMKAKDGVVYVEVRYSPHLLANSKVEPIPWNQAEGDLTPDEVVSLVNQGLQEGERDFGVKVRSILCCMRHQPSWSSEVVELCKKYREQTVVAIDLAGDETIEGSSLFPGHVKAYAEAVKSGVHRTVHAGEVGSANVVKEAVDTLKTERLGHGYHTLEDATLYNRLRQENMHFEVCPWSSYLTGAWKPDTEHPVVRFKNDQVNYSLNTDDPLIFKSTLDTDYQMTKNEMGFTEEEFKRLNINAAKSSFLPEDEKKELLDLLYKAYGMPSPASAEQCL
  Km: 18.3 µM
